The koff is the rate constant with which the complex falls apart. Usually kon stands for the second-order rate constant of association. A word on the Kd: it is the equilibrium constant for the complex coming apart. As a reminder, the EC50 is the concentration at which the effect is half-maximal.

The target of assay [1] is T1, recombinant mouse VISTA (His-tagged) (mouse, UniProt Q9D659 33-191).
T1 construct: also called murine VISTA; mVISTA
T1 sequence (looked up): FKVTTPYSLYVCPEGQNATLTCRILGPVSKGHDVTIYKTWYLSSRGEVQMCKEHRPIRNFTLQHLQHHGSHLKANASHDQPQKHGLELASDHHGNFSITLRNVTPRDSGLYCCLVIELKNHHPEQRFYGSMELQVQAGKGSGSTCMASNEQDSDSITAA
Nature of the assay: BLI (Octet QK384): His-tagged murine VISTA on anti-Penta-HIS tips, V4 666.5 to 41.7 nM as analyte, global fit. (Biolayer interferometry detects binding as a change in optical thickness at a sensor tip.)
Description: All measurements were performed at 25° C. with agitation at 1000 rpm. Kinetic measurements for antigen binding were performed by loading anti-VISTA antibody at different concentrations (indicated in the Figures) for 120 s, followed by a 120 s dissociation time by transferring the biosensors into assay buffer containing wells. Sensograms were referenced for buffer effects and then fitted using the Octet QK384 user software (Pall ForteBio, USA).
Kinetic responses were subjected to a global fitting using a one site binding model to obtain values for association (kon), dissociation (koff) rate constants and the equilibrium dissociation constant (KD). Only curves that could be reliably fitted with the software (R²>0.90) were included in the analysis.

The target in assay [2] is T1, recombinant mouse VISTA (His-tagged). Nature of the assay: BLI (Octet), 1:1 global fit, His-tagged mouse VISTA captured.
Description: All measurements were performed at 25° C. with agitation at 1000 rpm. […] Sensograms were referenced for buffer effects and then fitted using the Octet QK384 user software (Pall ForteBio, USA).
Assay [3] deals with T2, human VISTA expressed on cells (human, UniProt Q9H7M9 33-311).
T2 construct: also called HEK293 VISTA O/E; HEK293T or HEK293-6E cells overexpressing human VISTA
The assay can be described thus: flow cytometry, endogenous VISTA on CD11b+ myeloid cells of PBMCs. A general note: Flow cytometry measures light scatter and fluorescence of single cells or particles in a stream.
Description: (§1) To identify myeloid cells, PBMCs were further incubated with CD45 FITC and CD11b PE. Cells were washed again and resuspended in 200 μL of FACS flow buffer (PBS with 5 mM EDTA) for flow cytometric analysis using MACSQuant 10 (Miltenyi). After acquisition, all raw data were analyzed using Flowlogic software. Cells were gated using forward and side scatter, and the percentage of positive cells was determined.

Assay [4] addresses T3, recombinant human VISTA (His-tagged) (human, UniProt Q9H7M9 33-194).
T3 construct: bought soluble protein (Sino Biological); also called hVISTA; human VISTA polypeptide
The assay can be described thus: antigen-binding ELISA; HMBD-002 10 mg/mL in F5, day 0. Background: ELISA stands for enzyme-linked immunosorbent assay.

For assay [5], the target named is T3, recombinant human VISTA (His-tagged). The assay can be described thus: antigen-binding ELISA; HMBD-002 in F1, day 30 at 40°C.
For assay [6] the target is unchanged. Nature of the assay: antigen-binding ELISA; HMBD-002 in F3, day 20 at 40°C.
In assay [7] the target is T4, mouse VISTA expressed on cells (mouse, UniProt Q9D659 33-308).
T4 construct: whole, on cells; also called murine VISTA on transfected cells; VISTA on mouse CD11b+ myeloid cells
T4 sequence (looked up): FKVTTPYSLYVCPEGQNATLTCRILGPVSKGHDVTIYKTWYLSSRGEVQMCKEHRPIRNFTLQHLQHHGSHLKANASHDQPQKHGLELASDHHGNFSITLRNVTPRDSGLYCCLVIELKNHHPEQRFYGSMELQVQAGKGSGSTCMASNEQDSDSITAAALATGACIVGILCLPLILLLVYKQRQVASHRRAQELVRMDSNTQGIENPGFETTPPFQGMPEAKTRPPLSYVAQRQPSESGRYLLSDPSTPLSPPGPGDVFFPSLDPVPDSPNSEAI
The assay can be described thus: flow cytometry, HEK293T cells expressing the VISTA ortholog.
Description: as §1

The target in assay [8] is T2, human VISTA expressed on cells. The description is as above.
Description: as §1
In assay [9] the target is T5, rat VISTA expressed on cells (rat, UniProt A0ABK0L5H3 33-310).
T5 construct: whole, on cells; also called rat VISTA on HEK293T cells; VISTA on rat CD11b+ myeloid cells
T5 sequence: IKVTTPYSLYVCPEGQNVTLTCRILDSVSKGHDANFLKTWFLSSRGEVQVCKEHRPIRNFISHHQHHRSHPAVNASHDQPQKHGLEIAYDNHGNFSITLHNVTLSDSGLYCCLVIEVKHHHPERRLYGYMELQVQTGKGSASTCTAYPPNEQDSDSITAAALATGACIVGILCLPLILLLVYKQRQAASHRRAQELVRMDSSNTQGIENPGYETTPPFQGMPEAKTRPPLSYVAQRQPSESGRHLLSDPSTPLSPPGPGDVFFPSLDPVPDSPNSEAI
Described as above.
Description: as §1

For another assay, the target named is T6, human PD-L1 (human, UniProt Q9NZQ7 19-239).
T6 construct: captured through a His tag in the BLI experiments; also called hPD-L1; B7H1/PDL-1
Nature of the assay: ELISA, plate coated with human B7H1 (PDL1), antibody titrated.

Assay [10] deals with T3, recombinant human VISTA (His-tagged). The assay can be described thus: ELISA on coated human VISTA, antibody diluted in buffer of pH 5.5.
Description: (§2) 384-well plates were coated with 1 μg/ml of target antigen diluted in PBS for 16 hrs at 4° C. […] After washing, plates were developed with colorimetric detection substrate 3,3′,5,5′-tetramethylbenzidine (Turbo-TMB; Pierce) for 10 min.

T6 sequence (Q9NZQ7 19-239 limits assumed): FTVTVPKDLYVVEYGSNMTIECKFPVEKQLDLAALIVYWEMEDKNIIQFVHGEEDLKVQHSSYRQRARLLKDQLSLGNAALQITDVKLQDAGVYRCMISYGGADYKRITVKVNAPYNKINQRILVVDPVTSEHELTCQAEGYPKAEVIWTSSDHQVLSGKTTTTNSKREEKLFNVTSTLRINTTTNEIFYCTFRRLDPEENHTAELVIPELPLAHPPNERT
Description for human PD-L1: as §2

B1: anti-VISTA clone 4M2-C12 IgG1 (antibody)
heavy: not shown
light: DIVITQTPAILSTSPGEKVTMTCRASSSVGYIHWYQQKPGSSPKPWIYATSNLASGVPARFSGSGSGTSNSLTITRVEAEDAATYYCQQWSSYPPITFGGGTKLEVKRTVAAPSVFIFPPSDEQLKSGTASVVCLLNNFYPREAKVQWKVDNALQSGNSQESVTEQDSKDSTYSLSSTLTLSKADYEKHKVYACEVTHQGLSSPVTKSFNRGEC
notes: mouse variable regions on human IgG1/kappa constant regions; also called V4; V4pr
Turning to B1, in assay [1], the koff stood at 0.00445 s⁻¹ and the kon amounted to 39500 M⁻¹ s⁻¹. Also, in assay [2], the dissociation constant (Kd) was 108 nM, the koff amounted to 0.00656 s⁻¹ and the on-rate constant (kon) is 60900 M⁻¹ s⁻¹.

B2: V4-C26 hIgG4 (antibody)
heavy: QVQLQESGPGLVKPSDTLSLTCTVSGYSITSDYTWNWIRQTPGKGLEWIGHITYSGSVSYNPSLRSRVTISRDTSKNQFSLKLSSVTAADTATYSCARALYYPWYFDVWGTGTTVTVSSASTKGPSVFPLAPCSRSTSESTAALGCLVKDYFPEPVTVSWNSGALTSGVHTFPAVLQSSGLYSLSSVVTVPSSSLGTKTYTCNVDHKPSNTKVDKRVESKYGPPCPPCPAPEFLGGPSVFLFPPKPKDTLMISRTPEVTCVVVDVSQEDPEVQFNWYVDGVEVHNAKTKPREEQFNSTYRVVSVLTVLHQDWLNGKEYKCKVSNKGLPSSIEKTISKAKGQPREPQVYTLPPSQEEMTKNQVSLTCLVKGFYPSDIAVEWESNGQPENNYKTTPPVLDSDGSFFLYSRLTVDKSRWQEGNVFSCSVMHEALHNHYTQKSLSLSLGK
light: EIVLTQSPATLSLSPGERATLSCRASSSVGYIHWYQQKPGQAPRPIIYTTSNRATGIPARFSGSGSGTDNTLTISSLEPEDSAVYYCQQWSSYPPITFGGGTKLEVKRTVAAPSVFIFPPSDEQLKSGTASVVCLLNNFYPREAKVQWKVDNALQSGNSQESVTEQDSKDSTYSLSSTLTLSKADYEKHKVYACEVTHQGLSSPVTKSFNRGEC
notes: human IgG4 (S228P)/kappa format; also called HMBD-002; HMBD-002-V4C26
Take B2: the EC50 in assay [3] was 108 nM; in [4], 0.031 nM; in [5], 0.0215 nM; in assay [6], 0.0189 nM; in assay [7], 8.94 nM; in assay [8], 3.74 nM. The half-maximal effective concentration (EC50) was found to be 4.13 nM in assay [9] and 0.0731 nM in assay [10]. The binding result in the assay with human PD-L1 is listed as “no binding (tested: about 3e-8 M)”.
